Experimental data: patent publication US20150203577A1 (Chugai, published 2015)

T1: mouse FcγRII (mouse, UniProt P08101 30-210)
T1 construct: Extracellular domain with C-terminal His tag, made in FreeStyle 293 cells; also called mFcγRII; mFcgRII
T1 sequence: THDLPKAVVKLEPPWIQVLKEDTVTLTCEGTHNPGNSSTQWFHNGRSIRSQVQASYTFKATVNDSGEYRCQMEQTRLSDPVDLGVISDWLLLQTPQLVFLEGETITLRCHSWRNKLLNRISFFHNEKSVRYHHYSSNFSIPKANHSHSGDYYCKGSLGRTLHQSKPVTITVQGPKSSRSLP

T2: mouse FcγRIII (mouse, UniProt P08508 31-215)
T2 construct: Extracellular domain with C-terminal His tag, made in FreeStyle 293 cells; also called mFcγRIII; mFcgRIII
T2 chain: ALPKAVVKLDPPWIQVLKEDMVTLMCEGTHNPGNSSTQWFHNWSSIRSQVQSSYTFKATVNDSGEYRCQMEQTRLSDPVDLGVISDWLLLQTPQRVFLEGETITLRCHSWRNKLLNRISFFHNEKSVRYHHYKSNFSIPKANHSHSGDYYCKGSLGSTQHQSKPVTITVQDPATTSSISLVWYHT


Tests used:
mouse FcγRII [1] = target: T1, mouse FcγRII; experiment: SPR (Biacore), antibody captured on Protein L
mouse FcγRIII [2] = target: T2, mouse FcγRIII; experiment: SPR (Biacore), antibody captured on Protein L
mouse FcγRII [3] = target: T1, mouse FcγRII; experiment: SPR (Biacore), KD of H237-mIgG1/MRAL-k0 (same run) / KD of variant
mouse FcγRIII [4] = target: T2, mouse FcγRIII; experiment: as above

Binder	Kd (mouse FcγRII [1]) [µM]	Kd (mouse FcγRIII [2]) [µM]	relative mFcγRII-binding activity (mIgG1 = 1) (mouse FcγRII [3]) [fold]	relative mFcγRIII-binding activity (mIgG1 = 1) (mouse FcγRIII [4]) [fold]
H237-MB647/MRAL-k0 (antibody, 'T2301' read as T230I; copies: 2 + 2) heavy: QVQLQESGPGLVKPSETLSLTCAVSGHSISHDHAWSWVRQPPGEGLEWIGFISYSGITNYNPSLQGRVTISRDNSKNTLYLQMNSLRAEDTAVYYCARSLARTTAMDYWGEGTLVTVSSAKTTPPSVYPLAPGSAAQTNSMVTLGCLVKGYFPEPVTVTWNSGSLSSGVHTFPAVLQSDLYTLSSSVTVPSSTWPSETVTCNVAHPASSTKVDKKIVPRDCGCKPCICIPAEVEYVFIFPPKPKDVLTITLTPKVTCVVVDISKDDPEVQFSWFVDDVEVHTAQTQPREEQFNSTFRSVSELPIMHQDWLNGKEFKCRVNSAAFPAPIEKTISKTKGRPKAPQVYTIPPPKEQMAKDKVSLTCMITDFFPEDITVEWQWNGQPAENYKNTQPIMDTDGSYFVYSKLNVQKSNWEAGNTFTCSVLHEGLHNHHTEKSLSHSPGK light: not shown	0.2	2.8	1.16	0.12
H237-MB692/MRAL-k0 (antibody, mouse IgG1, kappa, copies: 2 + 2) heavy: QVQLQESGPGLVKPSETLSLTCAVSGHSISHDHAWSWVRQPPGEGLEWIGFISYSGITNYNPSLQGRVTISRDNSKNTLYLQMNSLRAEDTAVYYCARSLARTTAMDYWGEGTLVTVSSAKTTPPSVYPLAPGSAAQTNSMVTLGCLVKGYFPEPVTVTWNSGSLSSGVHTFPAVLQSDLYTLSSSVTVPSSTWPSETVTCNVAHPASSTKVDKKIVPRDCGCKPCICEPPEVEYVFIFPPKPKDVLTITLTPKVTCVVVDISKDDPEVQFSWFVDDVEVHTAQTQPREEQFNSTFRSVSELPIMHQDWLNGKEFKCRVNSAAFPAPIEKTISKTKGRPKAPQVYTIPPPKEQMAKDKVSLTCMITDFFPEDITVEWQWNGQPAENYKNTQPIMDTDGSYFVYSKLNVQKSNWEAGNTFTCSVLHEGLHNHHTEKSLSHSPGK light: not shown	0.186	4.44	1.75	0.12
H237-MB685/MRAL-k0 (antibody, mouse IgG1, kappa, copies: 2 + 2) heavy: QVQLQESGPGLVKPSETLSLTCAVSGHSISHDHAWSWVRQPPGEGLEWIGFISYSGITNYNPSLQGRVTISRDNSKNTLYLQMNSLRAEDTAVYYCARSLARTTAMDYWGEGTLVTVSSAKTTPPSVYPLAPGSAAQTNSMVTLGCLVKGYFPEPVTVTWNSGSLSSGVHTFPAVLQSDLYTLSSSVTVPSSTWPSETVTCNVAHPASSTKVDKKIVPRDCGCKPCICTPAEVELVFIFPPKPKDVLTITLTPKVTCVVVDISKDDPEVQFSWFVDDVEVHTAQTQPREEQFNSTFRSVSELPIMHQDWLNGKEFKCRVNSAAFPAPIEKTISKTKGRPKAPQVYTIPPPKEQMAKDKVSLTCMITDFFPEDITVEWQWNGQPAENYKNTQPIMDTDGSYFVYSKLNVQKSNWEAGNTFTCSVLHEGLHNHHTEKSLSHSPGK light: not shown	0.537	5.49	0.61	0.09
H237-MB688/MRAL-k0 (antibody, mouse IgG1, kappa, copies: 2 + 2) heavy: QVQLQESGPGLVKPSETLSLTCAVSGHSISHDHAWSWVRQPPGEGLEWIGFISYSGITNYNPSLQGRVTISRDNSKNTLYLQMNSLRAEDTAVYYCARSLARTTAMDYWGEGTLVTVSSAKTTPPSVYPLAPGSAAQTNSMVTLGCLVKGYFPEPVTVTWNSGSLSSGVHTFPAVLQSDLYTLSSSVTVPSSTWPSETVTCNVAHPASSTKVDKKIVPRDCGCKPCICTVYEVENVFIFPPKPKDVLTITLTPKVTCVVVDISKDDPEVQFSWFVDDVEVHTAQTQPREEQFNSTFRSVSELPIMHQDWLNGKEFKCRVNSAAFPAPIEKTISKTKGRPKAPQVYTIPPPKEQMAKDKVSLTCMITDFFPEDITVEWQWNGQPAENYKNTQPIMDTDGSYFVYSKLNVQKSNWEAGNTFTCSVLHEGLHNHHTEKSLSHSPGK light: not shown	0.513	6.3	0.63	0.08
H237-MB658/MRAL-k0 (antibody, mouse IgG1, kappa, copies: 2 + 2) heavy: QVQLQESGPGLVKPSETLSLTCAVSGHSISHDHAWSWVRQPPGEGLEWIGFISYSGITNYNPSLQGRVTISRDNSKNTLYLQMNSLRAEDTAVYYCARSLARTTAMDYWGEGTLVTVSSAKTTPPSVYPLAPGSAAQTNSMVTLGCLVKGYFPEPVTVTWNSGSLSSGVHTFPAVLQSDLYTLSSSVTVPSSTWPSETVTCNVAHPASSTKVDKKIVPRDCGCKPCICQPNEVEFVFIFPPKPKDVLTITLTPKVTCVVVDISKDDPEVQFSWFVDDVEVHTAQTQPREEQFNSTFRSVSELPIMHQDWLNGKEFKCRVNSAAFPAPIEKTISKTKGRPKAPQVYTIPPPKEQMAKDKVSLTCMITDFFPEDITVEWQWNGQPAENYKNTQPIMDTDGSYFVYSKLNVQKSNWEAGNTFTCSVLHEGLHNHHTEKSLSHSPGK light: not shown	0.415	4.88	0.56	0.07
H237-MB693/MRAL-k0 (antibody, mouse IgG1, kappa, copies: 2 + 2) heavy: QVQLQESGPGLVKPSETLSLTCAVSGHSISHDHAWSWVRQPPGEGLEWIGFISYSGITNYNPSLQGRVTISRDNSKNTLYLQMNSLRAEDTAVYYCARSLARTTAMDYWGEGTLVTVSSAKTTPPSVYPLAPGSAAQTNSMVTLGCLVKGYFPEPVTVTWNSGSLSSGVHTFPAVLQSDLYTLSSSVTVPSSTWPSETVTCNVAHPASSTKVDKKIVPRDCGCKPCICTDYEVEYVFIFPPKPKDVLTITLTPKVTCVVVDISKDDPEVQFSWFVDDVEVHTAQTQPREEQFNSTFRSVSELPIMHQDWLNGKEFKCRVNSAAFPAPIEKTISKTKGRPKAPQVYTIPPPKEQMAKDKVSLTCMITDFFPEDITVEWQWNGQPAENYKNTQPIMDTDGSYFVYSKLNVQKSNWEAGNTFTCSVLHEGLHNHHTEKSLSHSPGK light: not shown	0.267	5.41	1.22	0.09
H237-MB694/MRAL-k0 (antibody, mouse IgG1, kappa, copies: 2 + 2) heavy: QVQLQESGPGLVKPSETLSLTCAVSGHSISHDHAWSWVRQPPGEGLEWIGFISYSGITNYNPSLQGRVTISRDNSKNTLYLQMNSLRAEDTAVYYCARSLARTTAMDYWGEGTLVTVSSAKTTPPSVYPLAPGSAAQTNSMVTLGCLVKGYFPEPVTVTWNSGSLSSGVHTFPAVLQSDLYTLSSSVTVPSSTWPSETVTCNVAHPASSTKVDKKIVPRDCGCKPCICEDPEVEYVFIFPPKPKDVLTITLTPKVTCVVVDISKDDPEVQFSWFVDDVEVHTAQTQPREEQFNSTFRSVSELPIMHQDWLNGKEFKCRVNSAAFPAPIEKTISKTKGRPKAPQVYTIPPPKEQMAKDKVSLTCMITDFFPEDITVEWQWNGQPAENYKNTQPIMDTDGSYFVYSKLNVQKSNWEAGNTFTCSVLHEGLHNHHTEKSLSHSPGK light: not shown	0.598	16.4	0.54	0.03
H237-MB690/MRAL-k0 (antibody, mouse IgG1, kappa, copies: 2 + 2) heavy: QVQLQESGPGLVKPSETLSLTCAVSGHSISHDHAWSWVRQPPGEGLEWIGFISYSGITNYNPSLQGRVTISRDNSKNTLYLQMNSLRAEDTAVYYCARSLARTTAMDYWGEGTLVTVSSAKTTPPSVYPLAPGSAAQTNSMVTLGCLVKGYFPEPVTVTWNSGSLSSGVHTFPAVLQSDLYTLSSSVTVPSSTWPSETVTCNVAHPASSTKVDKKIVPRDCGCKPCICTPAEVEYVFIFPPKPKDVLTITLTPKVTCVVVDISKDDPEVQFSWFVDDVEVHTAQTQPREEQFNSTFRSVSELPIMHQDWLNGKEFKCRVNSAAFPAPIEKTISKTKGRPKAPQVYTIPPPKEQMAKDKVSLTCMITDFFPEDITVEWQWNGQPAENYKNTQPIMDTDGSYFVYSKLNVQKSNWEAGNTFTCSVLHEGLHNHHTEKSLSHSPGK light: not shown	0.204	2.71	1.6	0.19
H237-MB700/MRAL-k0 (antibody, mouse IgG1, kappa, copies: 2 + 2) heavy: QVQLQESGPGLVKPSETLSLTCAVSGHSISHDHAWSWVRQPPGEGLEWIGFISYSGITNYNPSLQGRVTISRDNSKNTLYLQMNSLRAEDTAVYYCARSLARTTAMDYWGEGTLVTVSSAKTTPPSVYPLAPGSAAQTNSMVTLGCLVKGYFPEPVTVTWNSGSLSSGVHTFPAVLQSDLYTLSSSVTVPSSTWPSETVTCNVAHPASSTKVDKKIVPRDCGCKPCICEVPEEEYVFIFPPKPKDVLTITLTPKVTCVVVDISKDDPEVQFSWFVDDVEVHTAQTQPREEQFNSTFRSVSELPIMHQDWLNGKEFKCRVNSAAFPAPIEKTISKTKGRPKAPQVYTIPPPKEQMAKDKVSLTCMITDFFPEDITVEWQWNGQPAENYKNTQPIMDTDGSYFVYSKLNVQKSNWEAGNTFTCSVLHEGLHNHHTEKSLSHSPGK light: not shown	0.582	11.6	0.56	0.04
H237-MB691/MRAL-k0 (antibody, mouse IgG1, kappa, copies: 2 + 2) heavy: QVQLQESGPGLVKPSETLSLTCAVSGHSISHDHAWSWVRQPPGEGLEWIGFISYSGITNYNPSLQGRVTISRDNSKNTLYLQMNSLRAEDTAVYYCARSLARTTAMDYWGEGTLVTVSSAKTTPPSVYPLAPGSAAQTNSMVTLGCLVKGYFPEPVTVTWNSGSLSSGVHTFPAVLQSDLYTLSSSVTVPSSTWPSETVTCNVAHPASSTKVDKKIVPRDCGCKPCICEVAEVEYVFIFPPKPKDVLTITLTPKVTCVVVDISKDDPEVQFSWFVDDVEVHTAQTQPREEQFNSTFRSVSELPIMHQDWLNGKEFKCRVNSAAFPAPIEKTISKTKGRPKAPQVYTIPPPKEQMAKDKVSLTCMITDFFPEDITVEWQWNGQPAENYKNTQPIMDTDGSYFVYSKLNVQKSNWEAGNTFTCSVLHEGLHNHHTEKSLSHSPGK light: not shown	0.559	7.18	0.58	0.07
